Paper PMC9851726

Target: human complement C3b (human) (UniProt P01024)
Sequence of UniProt P01024 (P01024 23-667, chain 1 of 2): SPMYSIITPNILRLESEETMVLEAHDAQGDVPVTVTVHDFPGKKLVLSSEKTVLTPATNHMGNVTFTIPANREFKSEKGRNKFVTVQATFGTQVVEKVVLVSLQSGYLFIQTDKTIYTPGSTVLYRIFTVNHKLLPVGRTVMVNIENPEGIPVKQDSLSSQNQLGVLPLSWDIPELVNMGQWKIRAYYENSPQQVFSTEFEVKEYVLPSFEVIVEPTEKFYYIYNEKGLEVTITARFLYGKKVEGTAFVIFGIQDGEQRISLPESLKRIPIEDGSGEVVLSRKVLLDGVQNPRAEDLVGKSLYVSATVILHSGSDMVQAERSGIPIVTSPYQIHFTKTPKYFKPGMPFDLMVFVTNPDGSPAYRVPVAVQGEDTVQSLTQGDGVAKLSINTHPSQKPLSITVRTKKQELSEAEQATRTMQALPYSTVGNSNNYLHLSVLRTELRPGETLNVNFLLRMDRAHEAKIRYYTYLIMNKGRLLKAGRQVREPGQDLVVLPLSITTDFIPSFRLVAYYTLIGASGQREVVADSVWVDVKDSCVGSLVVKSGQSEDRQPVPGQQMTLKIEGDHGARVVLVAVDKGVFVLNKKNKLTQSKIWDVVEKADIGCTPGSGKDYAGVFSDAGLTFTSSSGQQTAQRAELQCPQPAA
Sequence of UniProt P01024 (P01024 749-1663, chain 2 of 2): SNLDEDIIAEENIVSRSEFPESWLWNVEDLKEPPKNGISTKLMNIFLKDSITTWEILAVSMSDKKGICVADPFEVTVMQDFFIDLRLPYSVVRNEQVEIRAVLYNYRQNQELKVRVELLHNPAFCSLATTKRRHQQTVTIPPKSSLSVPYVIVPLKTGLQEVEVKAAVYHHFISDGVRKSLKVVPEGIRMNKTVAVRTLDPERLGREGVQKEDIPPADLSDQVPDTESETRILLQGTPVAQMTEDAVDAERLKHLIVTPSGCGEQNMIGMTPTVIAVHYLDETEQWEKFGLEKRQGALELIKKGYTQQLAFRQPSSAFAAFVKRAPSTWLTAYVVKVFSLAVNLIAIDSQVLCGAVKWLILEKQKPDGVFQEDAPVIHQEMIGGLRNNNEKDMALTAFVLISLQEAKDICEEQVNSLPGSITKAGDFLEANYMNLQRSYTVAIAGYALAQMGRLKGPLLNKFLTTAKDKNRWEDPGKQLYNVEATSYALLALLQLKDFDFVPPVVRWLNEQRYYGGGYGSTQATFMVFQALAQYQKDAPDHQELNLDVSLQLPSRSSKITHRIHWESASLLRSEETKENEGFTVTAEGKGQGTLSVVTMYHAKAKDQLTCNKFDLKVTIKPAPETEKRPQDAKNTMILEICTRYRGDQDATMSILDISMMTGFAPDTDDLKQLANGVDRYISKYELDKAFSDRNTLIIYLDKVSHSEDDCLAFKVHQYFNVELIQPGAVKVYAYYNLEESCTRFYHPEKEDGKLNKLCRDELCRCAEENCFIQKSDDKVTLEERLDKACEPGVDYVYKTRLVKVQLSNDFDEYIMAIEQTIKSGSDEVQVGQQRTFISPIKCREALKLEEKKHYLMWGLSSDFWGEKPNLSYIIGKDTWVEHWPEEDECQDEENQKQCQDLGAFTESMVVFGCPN

Q: With “recombinant SARS-CoV-2 ORF8 protein, His-tagged (from UniProt P0DTC8 18-121) (natural protein)” as the substance, how does the IC50 of inhibition of normal human serum-induced hemolysis of rabbit erythrocytes, ORF8 39 nM to 5000 nM read?
A: 2300 nM
